Reference: the RNAGym collection of RNA variant scans (doi:10.7554/elife.80360)

B1: CPEB3 Ribozyme (parent)
chain: GGGGGCCACAGCAGAAGCGUUCACGUCGCGGCCCCUGUCAGAUUCUGGUGAAUCUGCGAAUUCUGCUGU

Variants of: B1
Test: self-cleavage, relative activity (ratio to wild type); higher = more cleavage; co-transcriptional

Variant	self-cleavage
GGGGGCCACAGUAGAAGCGUUCACGUCGCGACCCCUGUCAGAUUCUGGUGAAUCUGCGAAUUCUGCUGU [C12U G31A]	0.905
GGGGGCCACAGUAGAAGCGUUCACGUCGCGUCCCCUGUCAGAUUCUGGUGAAUCUGCGAAUUCUGCUGU [C12U G31U]	0.723
GGGGGCCACAGUAGAAGCGUUCACGUCGCGCCCCCUGUCAGAUUCUGGUGAAUCUGCGAAUUCUGCUGU [C12U G31C]	0.191
GGGGGCCACAGUAGAAGCGUUCACGUCCCGGCCCCUGUCAGAUUCUGGUGAAUCUGCGAAUUCUGCUGU [C12U G28C]	0.175
GGGGGCCACAGUAGAAGCGUUCACGUCACGGCCCCUGUCAGAUUCUGGUGAAUCUGCGAAUUCUGCUGU [C12U G28A]	0.17
GGGGGCCACAGUAGAAGCGUUCACGUCUCGGCCCCUGUCAGAUUCUGGUGAAUCUGCGAAUUCUGCUGU [C12U G28U]	0.131
GGGGGCCACAGUAGAAGCGUUCACGUCGCGGCCCCUGUCAGAUUAUGGUGAAUCUGCGAAUUCUGCUGU [C12U C45A]	0.97
GGGGGCCACAGUAGAAGCGUUCACAUCGCGGCCCCUGUCAGAUUCUGGUGAAUCUGCGAAUUCUGCUGU [C12U G25A]	0.184
GGGGGCCACAGUAGAAGCGUUCACUUCGCGGCCCCUGUCAGAUUCUGGUGAAUCUGCGAAUUCUGCUGU [C12U G25U]	0.134
GGGGGCCACAGUAGAAGCGUUCACCUCGCGGCCCCUGUCAGAUUCUGGUGAAUCUGCGAAUUCUGCUGU [C12U G25C]	0.121
GGGGGCCACAGUAGAAACGUUCACGUCGCGGCCCCUGUCAGAUUCUGGUGAAUCUGCGAAUUCUGCUGU [C12U G17A]	0.281
GGGGGCCACAGUAGAACCGUUCACGUCGCGGCCCCUGUCAGAUUCUGGUGAAUCUGCGAAUUCUGCUGU [C12U G17C]	0.138
GGGGGCCACAGUAGAAUCGUUCACGUCGCGGCCCCUGUCAGAUUCUGGUGAAUCUGCGAAUUCUGCUGU [C12U G17U]	0.321
GGGGGCCACAGUAGAAGCGUUCACGUCGCGGCCCCUGUCAUAUUCUGGUGAAUCUGCGAAUUCUGCUGU [C12U G41U]	0.718
GGGGGCCACAGUAGAAGCAUUCACGUCGCGGCCCCUGUCAGAUUCUGGUGAAUCUGCGAAUUCUGCUGU [C12U G19A]	0.12
GGGGGCCACAGUAGAAGCCUUCACGUCGCGGCCCCUGUCAGAUUCUGGUGAAUCUGCGAAUUCUGCUGU [C12U G19C]	0.154
GGGGGCCACAGUAAAAGCGUUCACGUCGCGGCCCCUGUCAGAUUCUGGUGAAUCUGCGAAUUCUGCUGU [C12U G14A]	0.19
GGGGGCCACAGUAGAAGCGUUCACGUCGCGGCCCCUGUCAGAUUCUGGUGAAUCUGCGAAUUGUGCUGU [C12U C63G]	0.443
GGGGGCCACAGUAGAAGCGUUCACGUCGCGGCCCCUGUCAGAUUCUGUUGAAUCUGCGAAUUCUGCUGU [C12U G48U]	1.01
GGGGGCCACAGUAGAAGCGUUCACGUCGCGGCUCCUGUCAGAUUCUGGUGAAUCUGCGAAUUCUGCUGU [C12U C33U]	0.972

Variant	self-cleavage
GGGGGCCACAGUAGAAGCGUUCACGUCGCGGCCCCUGUCAGAUUCUGGUGAAUCUGCGAAUUCUGAUGU [C12U C66A]	0.571
GGGGGCCACAGUAGAAGCGUUCACGUCGCGGCCCCUGUCAGAUUCUGGUAAAUCUGCGAAUUCUGCUGU [C12U G50A]	1
GGGGGCCACAGUAGAAGCGUUCACGUCGCAGCCCCUGUCAGAUUCUGGUGAAUCUGCGAAUUCUGCUGU [C12U G30A]	0.864
GGGGGCCACAGUAGAAGCGUUCACGUCGCGGCCCCUGUCAGAUUCUGGUGAAUGUGCGAAUUCUGCUGU [C12U C54G]	0.84
GGGGGCCACAGUAGAAGCGUUCACGUCGCGGCCCCUGUCAGAUUCUGGUGAAUAUGCGAAUUCUGCUGU [C12U C54A]	0.812
GGGGGCCACAGUAGAAGCGUUCACGUCGCGGCCCCUGUGAGAUUCUGGUGAAUCUGCGAAUUCUGCUGU [C12U C39G]	0.928
GGGGGCCACAGUAGAAGCGUUCACGUCGCGGCCCCUGUUAGAUUCUGGUGAAUCUGCGAAUUCUGCUGU [C12U C39U]	0.854
GGGGGCCACAGUAGAAGCGUUCACGUCGCGGCCCCUGUCAGAUUCUAGUGAAUCUGCGAAUUCUGCUGU [C12U G47A]	1.03
GGGGGCCACAGUAGAAGCGUUCACGUCGCGGCCCCUGUCAGAUUCUUGUGAAUCUGCGAAUUCUGCUGU [C12U G47U]	0.998
GGGGGCCACAGUAGAAGCGUUCACGUCGCGGCCCCUGUCAGAUUCUCGUGAAUCUGCGAAUUCUGCUGU [C12U G47C]	1.03
GGGGGCCACAGUAGAAGCGUUCACGUCGCGGCCCCUAUCAGAUUCUGGUGAAUCUGCGAAUUCUGCUGU [C12U G37A]	0.302
GGGGGCCACAGUAGAAGCGUUCACGUCGCGGCCCCUCUCAGAUUCUGGUGAAUCUGCGAAUUCUGCUGU [C12U G37C]	0.241
GGGGGCCACAGUAGAAGCGUUCACGUCGCGGCCCCUUUCAGAUUCUGGUGAAUCUGCGAAUUCUGCUGU [C12U G37U]	0.222
GGGGGCCACAGUAGAAGCGUUCACGUCGCGGCCCCUGUCAGAUUCUGGUGAAUCUGAGAAUUCUGCUGU [C12U C57A]	0.438
GGGGGCCACAGUAGAAGCGUUCACGUCGCGGCCCCUGUCAGAUUCUGGUGAAUCUGGGAAUUCUGCUGU [C12U C57G]	0.31
GGGGGCCACAGUAGAAGCGUUCACGUCGCGGGCCCUGUCAGAUUCUGGUGAAUCUGCGAAUUCUGCUGU [C12U C32G]	0.529
GGGGGCCACAGUAGAAGCGUUCACGUCGCGGCCUCUGUCAGAUUCUGGUGAAUCUGCGAAUUCUGCUGU [C12U C34U]	0.959
GGGGGCCACAGUAGAAGCGUUCACGUCGCGGCCGCUGUCAGAUUCUGGUGAAUCUGCGAAUUCUGCUGU [C12U C34G]	0.734
GGGGGCCACAGUAGAAGCGUUCACGUCGCGGCCACUGUCAGAUUCUGGUGAAUCUGCGAAUUCUGCUGU [C12U C34A]	0.778
